The results in this text go back to US20110244498.

This data set concerns non-phosphorylated pKID-Abl.

Consider “Abl tyrosine kinase (New England Biolabs)”, for which the “conversion of non-phosphorylated pKID-Abl to phosphorylated pKID-Abl (analytical HPLC, 30 min at 37 C, 300 units Abl)” value was 62% conversion of non-phosphorylated pKID-Abl to phosphorylated pKID-Abl in the absence of Gleevec; the “conversion of non-phosphorylated pKID-Abl to phosphorylated pKID-Abl in the presence of 50 µM Gleevec (analytical HPLC)” value was “less than 5% conversion was observed in the presence of Gleevec”; the “terbium luminescence after incubation with kinase” value was “resulted in a significant increase in terbium luminescence”.
